Results from PMC6305486.

Molecular target: FtsQ_(50–276), P06136
Experiment: BLI
Conditions: chain shown with the change; GST-e5-FtsB (mutant) in complex with k5-FtsL immobilized; FtsQ analyte 0-60 µM; parent: 0.24 ± 0.01

Chain of FtsQ_(50–276), P06136 (P06136 50-276): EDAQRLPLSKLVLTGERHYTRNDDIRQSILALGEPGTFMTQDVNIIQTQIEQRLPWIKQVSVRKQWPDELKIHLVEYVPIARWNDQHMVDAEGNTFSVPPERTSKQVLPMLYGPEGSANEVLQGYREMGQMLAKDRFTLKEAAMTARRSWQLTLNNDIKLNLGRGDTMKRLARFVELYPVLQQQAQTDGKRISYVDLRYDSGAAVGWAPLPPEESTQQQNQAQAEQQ

B1: GST-fused e5-FtsB_(25–103)/k5-FtsL_(64–121) complex (WT), P0A6S5;P0AEN4 E68A (protein)
chain 1: GIHDYTRVNDDVAAQQATNAKLKARNDQLFAEIDDLNGGQEALAERARNELSMTRPGETFYRLVPDASKRAQSAGQNNR
chain 2: TAQREQLVLERDALDIEWRNLILEENALGDHSRVERIATEKLQMQHVDPSQENIVVQK
Kd: 2.4 µM
